What was measured:
[1] = target: CK2-phosphorylated XRCC4(1-238)-LigIV(654-911) complex (UniProt Q13426); assay: SAXS
[2] = target: CK2-phosphorylated XRCC4(1-238)-LigIV(654-911) complex (UniProt Q13426); assay: SEC-MALS

Sequence of CK2-phosphorylated XRCC4(1-238)-LigIV(654-911) complex (Q13426 1-238, chain 1 of 2): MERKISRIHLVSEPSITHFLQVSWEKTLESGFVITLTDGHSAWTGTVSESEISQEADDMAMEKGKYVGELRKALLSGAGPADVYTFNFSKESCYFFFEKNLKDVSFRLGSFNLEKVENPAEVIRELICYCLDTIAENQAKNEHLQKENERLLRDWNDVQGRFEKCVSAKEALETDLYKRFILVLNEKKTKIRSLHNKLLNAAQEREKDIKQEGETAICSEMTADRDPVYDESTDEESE
Sequence of CK2-phosphorylated XRCC4(1-238)-LigIV(654-911) complex (P49917 654-911, chain 2 of 2, further chain): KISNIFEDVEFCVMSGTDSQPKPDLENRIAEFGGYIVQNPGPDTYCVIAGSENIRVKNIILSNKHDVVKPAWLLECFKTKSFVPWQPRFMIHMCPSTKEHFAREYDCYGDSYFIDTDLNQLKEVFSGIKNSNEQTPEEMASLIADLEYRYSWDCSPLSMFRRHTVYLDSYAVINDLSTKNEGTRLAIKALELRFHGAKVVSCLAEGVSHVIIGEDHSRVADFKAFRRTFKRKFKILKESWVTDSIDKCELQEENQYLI

stoichiometry N (PNKP per pXRCC4 dimer-LigIV complex) [1]: 1
stoichiometry N (PNKP per pXRCC4 dimer-LigIV complex) [2]: 1
Substance: polynucleotide kinase/phosphatase (PNKP), full length, wild type (from UniProt Q96T60 1-521) (enzyme)
